Source: patent US6703362 (CYTOGEN, dated 2004)

T1: D2H receptor domain (human D2H transporter, amino acid residues 387-685), His-tag fusion protein (human, UniProt Q07837 387-685)
T1 construct: purified under denaturing conditions; also called recombinant D2H; not shown: poly-histidine tag (pET vector) at the NH2-terminal end
T1 sequence: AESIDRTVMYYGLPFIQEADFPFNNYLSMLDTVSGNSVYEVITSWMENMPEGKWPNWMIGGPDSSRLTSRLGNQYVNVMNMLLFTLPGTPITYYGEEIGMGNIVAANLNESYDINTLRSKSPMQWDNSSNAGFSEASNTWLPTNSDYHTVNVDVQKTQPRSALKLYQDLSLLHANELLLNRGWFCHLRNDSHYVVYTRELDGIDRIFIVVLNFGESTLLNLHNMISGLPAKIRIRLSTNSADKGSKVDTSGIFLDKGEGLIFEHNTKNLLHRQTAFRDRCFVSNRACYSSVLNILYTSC

B1: SNi38 (peptide)
peptide: RGAADQRRGWSENLGLPRVGWDAIAHNSYTFTSRRPRPPAETVESCLAKPHTENSFTNVWKDDKTLDRYANYEGCLWNATGVVVCTGDETQCYGTWVPIGLAIPENEGGGSEGGGSEGGGSEGGGTKPPEYGDTPIPGYTYINPLDGTYPPGTEQNPANPNPSLEESQPLNTFMFQNNRFRNRQGALTVYTGTVTQGTDPVKTYYQYTPVSSKAMYDAYWNGKFRDCAFHSGFNEDPFVCEYQGQSSDLPQPPVNAGGGSGGGSGGGSEGGGSEGGGSEGGGSEGGGSGGGSGSGDFDYEKMANANKGAMTENADENALQSDAKGKLDSVATDYGAAIDGFIGDVSGLANGNGATGDFAGSNSQMAQVGDGDNSPLMNNFRQYLPSLPQSVECRPFVFSAGKPYEFSIDCDKINLFRGVFAFLLYVATFMYVFSTFANILRNKES
notes: Assayed as M13 phage clone displaying the insert
B2: SNi28 (peptide)
peptide: SHSGGMNRAYGDVFRELRDRWNATSHHTRPTPQLPRGPNAETVESCLAKPHTENSFTNVWKDDKTLDRYANYEGCLWNATGVVVCTGDETQCYGTWVPIGLAIPENEGGGSEGGGSEGGGSEGGGTKPPEYGDTPIPGYTYINPLDGTYPPGTEQNPANPNPSLEESQPLNTFMFQNNRFRNRQGALTVYTGTVTQGTDPVKTYYQYTPVSSKAMYDAYWNGKFRDCAFHSGFNEDPFVCEYQGQSSDLPQPPVNAGGGSGGGSGGGSEGGGSEGGGSEGGGSEGGGSGGGSGSGDFDYEKMANANKGAMTENADENALQSDAKGKLDSVATDYGAAIDGFIGDVSGLANGNGATGDFAGSNSQMAQVGDGDNSPLMNNFRQYLPSLPQSVECRPFVFSAGKPYEFSIDCDKINLFRGVFAFLLYVATFMYVFSTFANILRNKES
notes: as for B1
B3: SNi45 (peptide)
peptide: SGGEVSSWGRVNDLCARVSWTGCGTARSARTDNKGFLPKHSSLRAETVESCLAKPHTENSFTNVWKDDKTLDRYANYEGCLWNATGVVVCTGDETQCYGTWVPIGLAIPENEGGGSEGGGSEGGGSEGGGTKPPEYGDTPIPGYTYINPLDGTYPPGTEQNPANPNPSLEESQPLNTFMFQNNRFRNRQGALTVYTGTVTQGTDPVKTYYQYTPVSSKAMYDAYWNGKFRDCAFHSGFNEDPFVCEYQGQSSDLPQPPVNAGGGSGGGSGGGSEGGGSEGGGSEGGGSEGGGSGGGSGSGDFDYEKMANANKGAMTENADENALQSDAKGKLDSVATDYGAAIDGFIGDVSGLANGNGATGDFAGSNSQMAQVGDGDNSPLMNNFRQYLPSLPQSVECRPFVFSAGKPYEFSIDCDKINLFRGVFAFLLYVATFMYVFSTFANILRNKES
notes: as for B1
B4: SNi34 (peptide)
peptide: SPCGGSWGRFMQGGLFGGRTDGCGAHRNRTSASLEPPSSDYAETVESCLAKPHTENSFTNVWKDDKTLDRYANYEGCLWNATGVVVCTGDETQCYGTWVPIGLAIPENEGGGSEGGGSEGGGSEGGGTKPPEYGDTPIPGYTYINPLDGTYPPGTEQNPANPNPSLEESQPLNTFMFQNNRFRNRQGALTVYTGTVTQGTDPVKTYYQYTPVSSKAMYDAYWNGKFRDCAFHSGFNEDPFVCEYQGQSSDLPQPPVNAGGGSGGGSGGGSEGGGSEGGGSEGGGSEGGGSGGGSGSGDFDYEKMANANKGAMTENADENALQSDAKGKLDSVATDYGAAIDGFIGDVSGLANGNGATGDFAGSNSQMAQVGDGDNSPLMNNFRQYLPSLPQSVECRPFVFSAGKPYEFSIDCDKINLFRGVFAFLLYVATFMYVFSTFANILRNKES
notes: as for B1
B5: SNiAX6 (peptide)
peptide: RTTTAKGCLLGSFGVLSGCSFTPTSPPPHLGYPPHSVNAETVESCLAKPHTENSFTNVWKDDKTLDRYANYEGCLWNATGVVVCTGDETQCYGTWVPIGLAIPENEGGGSEGGGSEGGGSEGGGTKPPEYGDTPIPGYTYINPLDGTYPPGTEQNPANPNPSLEESQPLNTFMFQNNRFRNRQGALTVYTGTVTQGTDPVKTYYQYTPVSSKAMYDAYWNGKFRDCAFHSGFNEDPFVCEYQGQSSDLPQPPVNAGGGSGGGSGGGSEGGGSEGGGSEGGGSEGGGSGGGSGSGDFDYEKMANANKGAMTENADENALQSDAKGKLDSVATDYGAAIDGFIGDVSGLANGNGATGDFAGSNSQMAQVGDGDNSPLMNNFRQYLPSLPQSVECRPFVFSAGKPYEFSIDCDKINLFRGVFAFLLYVATFMYVFSTFANILRNKES
notes: as for B1
B6: SNi10 (peptide)
peptide: RVGQCTDSDVRRPWARSCAHQGCGAGTRNSHGCITRPLRQASAHAETVESCLAKPHTENSFTNVWKDDKTLDRYANYEGCLWNATGVVVCTGDETQCYGTWVPIGLAIPENEGGGSEGGGSEGGGSEGGGTKPPEYGDTPIPGYTYINPLDGTYPPGTEQNPANPNPSLEESQPLNTFMFQNNRFRNRQGALTVYTGTVTQGTDPVKTYYQYTPVSSKAMYDAYWNGKFRDCAFHSGFNEDPFVCEYQGQSSDLPQPPVNAGGGSGGGSGGGSEGGGSEGGGSEGGGSEGGGSGGGSGSGDFDYEKMANANKGAMTENADENALQSDAKGKLDSVATDYGAAIDGFIGDVSGLANGNGATGDFAGSNSQMAQVGDGDNSPLMNNFRQYLPSLPQSVECRPFVFSAGKPYEFSIDCDKINLFRGVFAFLLYVATFMYVFSTFANILRNKES
notes: as for B1
B7: SNiAX2 (peptide)
peptide: SDSDGDHYGLRGGVRCSLRDRGCGLALSTVHAGPPSFYPKLSSPAETVESCLAKPHTENSFTNVWKDDKTLDRYANYEGCLWNATGVVVCTGDETQCYGTWVPIGLAIPENEGGGSEGGGSEGGGSEGGGTKPPEYGDTPIPGYTYINPLDGTYPPGTEQNPANPNPSLEESQPLNTFMFQNNRFRNRQGALTVYTGTVTQGTDPVKTYYQYTPVSSKAMYDAYWNGKFRDCAFHSGFNEDPFVCEYQGQSSDLPQPPVNAGGGSGGGSGGGSEGGGSEGGGSEGGGSEGGGSGGGSGSGDFDYEKMANANKGAMTENADENALQSDAKGKLDSVATDYGAAIDGFIGDVSGLANGNGATGDFAGSNSQMAQVGDGDNSPLMNNFRQYLPSLPQSVECRPFVFSAGKPYEFSIDCDKINLFRGVFAFLLYVATFMYVFSTFANILRNKES
notes: as for B1
B8: DAX27 (peptide)
peptide: SHPWYRHWNHGDFSGSGQSRHTPPESPHPGRPNATIAETVESCLAKPHTENSFTNVWKDDKTLDRYANYEGCLWNATGVVVCTGDETQCYGTWVPIGLAIPENEGGGSEGGGSEGGGSEGGGTKPPEYGDTPIPGYTYINPLDGTYPPGTEQNPANPNPSLEESQPLNTFMFQNNRFRNRQGALTVYTGTVTQGTDPVKTYYQYTPVSSKAMYDAYWNGKFRDCAFHSGFNEDPFVCEYQGQSSDLPQPPVNAGGGSGGGSGGGSEGGGSEGGGSEGGGSEGGGSGGGSGSGDFDYEKMANANKGAMTENADENALQSDAKGKLDSVATDYGAAIDGFIGDVSGLANGNGATGDFAGSNSQMAQVGDGDNSPLMNNFRQYLPSLPQSVECRPFVFSAGKPYEFSIDCDKINLFRGVFAFLLYVATFMYVFSTFANILRNKES
notes: as for B1
B9: DAX15 (peptide)
peptide: SESGRCRSVSRWMTTWQTQKGGCGSNVSRGSPLDPSHQTGHATTAETVESCLAKPHTENSFTNVWKDDKTLDRYANYEGCLWNATGVVVCTGDETQCYGTWVPIGLAIPENEGGGSEGGGSEGGGSEGGGTKPPEYGDTPIPGYTYINPLDGTYPPGTEQNPANPNPSLEESQPLNTFMFQNNRFRNRQGALTVYTGTVTQGTDPVKTYYQYTPVSSKAMYDAYWNGKFRDCAFHSGFNEDPFVCEYQGQSSDLPQPPVNAGGGSGGGSGGGSEGGGSEGGGSEGGGSEGGGSGGGSGSGDFDYEKMANANKGAMTENADENALQSDAKGKLDSVATDYGAAIDGFIGDVSGLANGNGATGDFAGSNSQMAQVGDGDNSPLMNNFRQYLPSLPQSVECRPFVFSAGKPYEFSIDCDKINLFRGVFAFLLYVATFMYVFSTFANILRNKES
notes: as for B1
B10: DAX24 (peptide)
peptide: RMEDIKNSGWRDSCRWGDLRPGCGSRQWYPSNMRSSRDYPAGGHAETVESCLAKPHTENSFTNVWKDDKTLDRYANYEGCLWNATGVVVCTGDETQCYGTWVPIGLAIPENEGGGSEGGGSEGGGSEGGGTKPPEYGDTPIPGYTYINPLDGTYPPGTEQNPANPNPSLEESQPLNTFMFQNNRFRNRQGALTVYTGTVTQGTDPVKTYYQYTPVSSKAMYDAYWNGKFRDCAFHSGFNEDPFVCEYQGQSSDLPQPPVNAGGGSGGGSGGGSEGGGSEGGGSEGGGSEGGGSGGGSGSGDFDYEKMANANKGAMTENADENALQSDAKGKLDSVATDYGAAIDGFIGDVSGLANGNGATGDFAGSNSQMAQVGDGDNSPLMNNFRQYLPSLPQSVECRPFVFSAGKPYEFSIDCDKINLFRGVFAFLLYVATFMYVFSTFANILRNKES
notes: as for B1
B11: DAB30 (peptide)
peptide: SGFWEFSRGLWDGENRKSVRSGCGFRGSSAQGPCPVTPATIDKHAETVESCLAKPHTENSFTNVWKDDKTLDRYANYEGCLWNATGVVVCTGDETQCYGTWVPIGLAIPENEGGGSEGGGSEGGGSEGGGTKPPEYGDTPIPGYTYINPLDGTYPPGTEQNPANPNPSLEESQPLNTFMFQNNRFRNRQGALTVYTGTVTQGTDPVKTYYQYTPVSSKAMYDAYWNGKFRDCAFHSGFNEDPFVCEYQGQSSDLPQPPVNAGGGSGGGSGGGSEGGGSEGGGSEGGGSEGGGSGGGSGSGDFDYEKMANANKGAMTENADENALQSDAKGKLDSVATDYGAAIDGFIGDVSGLANGNGATGDFAGSNSQMAQVGDGDNSPLMNNFRQYLPSLPQSVECRPFVFSAGKPYEFSIDCDKINLFRGVFAFLLYVATFMYVFSTFANILRNKES
notes: as for B1

Molecular target: T2, hSI receptor domain (human sucrase-isomaltase complex, amino acid residues 272-667), His-tag fusion protein (human, UniProt P14410 272-667)
T2 construct: also called hS1; recombinant hSI; not shown: poly-histidine tag (pET vector) at the NH2-terminal end
T2 sequence (P14410 272-667, one chain of several): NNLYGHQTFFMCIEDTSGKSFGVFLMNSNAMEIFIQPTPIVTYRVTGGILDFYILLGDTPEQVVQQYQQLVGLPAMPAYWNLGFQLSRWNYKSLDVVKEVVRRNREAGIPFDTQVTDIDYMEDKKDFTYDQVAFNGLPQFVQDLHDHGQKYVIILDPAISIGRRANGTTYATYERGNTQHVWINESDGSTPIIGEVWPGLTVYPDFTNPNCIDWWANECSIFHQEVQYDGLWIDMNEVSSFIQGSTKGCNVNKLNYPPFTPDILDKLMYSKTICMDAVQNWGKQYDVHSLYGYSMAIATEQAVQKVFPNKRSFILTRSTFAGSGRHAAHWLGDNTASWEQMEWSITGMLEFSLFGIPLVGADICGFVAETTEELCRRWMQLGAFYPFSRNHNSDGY
Experiment: phage ELISA, plate coated with hSI domain
Protocol: (§1) 6.6. Receptor ELISA Procedure 96 well plates were coated overnight with GIT receptor, BSA and, optionally, IDE (insulin degrading enzyme, an irrelevant His-fusion protein)or hTF. The plates were blocked for one hour with 0.5% BSA-PBS. After clarification, the amplified phage were diluted 1:100 in […] plus 0.05% Tween 20 in PBS and added to the plates. Following incubation of the plates on a rotator for 1 to 2 hours, the plates were washed 5 times with 1% BSA plus 0.05% Tween 20 in PBS. […] After the plates were washed 5 times, as described above, TMB substrate was added to the wells. The plates were read at 650 nm absorbance.

Binder | OD [OD]
B1 | 0.466
B2 | 0.942
B3 | 0.518
B4 | 0.761
B5 | 0.369
B6 | 0.57
B7 | 0.383

Molecular target: T2, hSI receptor domain (human …)
Experiment: phage ELISA, OD on hSI over OD on BSA
Protocol: as §1

Binder | hSI/BSA [ratio]
B1 | 6
B2 | 8
B3 | 9
B4 | 7
B5 | 7
B6 | 11
B7 | 6

Molecular target: T1, D2H receptor domain (human D2H …)
Experiment: phage ELISA, plate coated with D2H domain
Protocol: as §1

Binder | OD [OD]
B8 | 1.58
B9 | 0.391
B10 | 0.591
B11 | 0.704
